Test results taken from paper PMC3601010, “The complete N-terminal extension of heparin cofactor II is required for maximal effectiveness as a thrombin exosite 1 ligand” (BMC Biochemistry, 2013).
Entries after “also recorded” stand apart in the source; their conditions may differ. Each block holds one substance with its values, some of them ahead of it. Ends that are not written are not given here.

Key:
[1] = target: T1, α-thrombin (Homo sapiens, UniProt P00734); experiment: amidolytic activity of thrombin against S2238 after modification; type: biochemical; parameters: purchased Enzyme Research, South Bend, IN; settings: bFPRck:thrombin molar ratio 10:1, TBS pH 7.4, ten minutes ambient
Procedure: HCII- or hirudin-related peptides in 50 mM sodium phosphate pH 6.5 were combined with 20-fold molar excess sulfosuccinimidyl-6-(biotinamido) hexanoate (sulfo-NHS-LC-biotin, Pierce) at ambient temperature for 30 minutes. Reactions were quenched with excess Tris-Cl pH 7.4 and sulfo-NHS-LC-biotin removed by desalting or dialysis. Biotinylated FPR chloromethylketone (bFPRck; Haematologic Technologies, Essex Junction, VT) was used to modify α-thrombin at a bFPRck: thrombin molar ratio of 10:1 in Tris-buffered saline (TBS, pH 7.4) for ten minutes at ambient temperature. Excess reagent was removed by overnight dialysis versus TBS.

[2] = target: T1, α-thrombin; experiment: competition of dermatan sulfate-catalysed thrombin inhibition by plasma-derived HCII (k2app); type: biochemical; parameters: purchased Enzyme Research, South Bend, IN; settings: 250 μM competitor peptide, 1.4 μM dermatan sulfate
Procedure: (§1) The apparent second-order rate constant (k2app) of α-thrombin inhibition by purified plasma-derived HCII (Affinity Biologicals, Ancaster, ON) was determined under pseudo-first order conditions involving an excess of plasma-derived HCII over α-thrombin using a discontinuous assay as previously described, with or without addition of competitor HCII 1-75, HCII 54-75, or HCII 1-53 at 0.25 mM. Briefly, plasma-derived HCII (140 nM) was incubated with α-thrombin (14 nM) in PPNE buffer (20 mM Na2HPO4, pH 7.4, 100 mM NaCl, 0.1 mM EDTA, 0.1% polyethylene glycol 8000) supplemented with 0.055 mg/mL (2 μM) standard heparin (Hepalean, Organon Teknika Canada, St. Laurent, QC) and 10 μM S2238 (DiaPharma,West Chester OH) or 0.055 mg/mL (1.4 μM) dermatan sulfate (Sigma-Aldrich, St. Louis, MO). Residual protease activity was determined by diluting the reactions 100-fold into 100 μM S2238 and measuring the absorbance at 405 nm for 5 minutes using an EL808 plate reader (BioTek Instruments, Winooski, VT).
(§2) Figure 5 Effects of HCII-derived peptides on the inhibition of thrombin by plasma-derived HCII in the presence of GAGs. […] The competing peptides that were used separately at 250 μM were: HCII 1-75; HCII 54-75; or HCII 1-53. The mean ± the SD of 3 independent experiments is shown.

[3] = system: human thrombin; experiment: thrombin clotting time in plasma; type: biochemical
Procedure: Thrombin times were determined using Thrombin 10 (freeze-dried human thrombin with calcium [1.5 NIH units/mL] Diagnostica Stago, Asnieres, France) and an STA 4 coagulation analyzer (Diagnostica Stago). Citrated human plasma (25 μL) was combined with 75 μL veronal buffer (7.14 mM sodium acetate trihydrate, 7.4 mM sodium diethyl barbiturate, 131 mM NaCl pH 7.4) containing or lacking HCII- or hirudin-related peptides, and clotting time was determined following the addition of 100 μL Thrombin 10 reagent.
Figure 4 Effects of competitor peptides on thrombin clotting time. […] The mean ± the SD of 3 independent experiments is shown.

[4] = target: T1, α-thrombin; experiment: competition of heparin-catalysed thrombin inhibition by plasma-derived HCII (k2app); type: biochemical; parameters: purchased Enzyme Research, South Bend, IN; settings: 250 μM competitor peptide, 140 nM plasma-derived HCII, 55 μg/mL standard heparin
Procedure: as §1, §2

[5] = target: T2, thrombin (Homo sapiens, UniProt P00734); experiment: SPR competition of thrombin binding to chip-immobilized HCII 1-75
T2 construct: purchased Enzyme Research, South Bend, IN; host or cells: HCII 1-75 probe made in house in E. coli TOP10
Procedure: Surface plasmon resonance experiments were carried out using a BIAcore X biosensor instrument (Biacore, Piscataway, NJ) at 25°C. Biotinylated HCII- or hirudin-related peptides were immobilized on streptavidin-coated sensor chips (GE Healthcare) under conditions recommended by the manufacturer. […] A flow rate of 2 μL/minute was employed for immobilization runs, with 0.5 M NaCl employed as a regeneration buffer and HEPES-buffered saline (10 mM HEPES, 150 mM NaCl, 0.005% Tween-20, pH 7.7) otherwise used for binding determinations. Binding of thrombin (0-30 μM) was assessed using 20 μL injection volumes, and flow rates of 20 μL/minute. BIAcore Evaluation 3.2 (BIAcore) software was used to evaluate sensorgrams from each run, using either 1:1 Langmuir binding or steady state analysis. In some experiments various concentrations of HCII- or hirudin-related peptides were combined with 250 nM thrombin or FPR-ck-thrombin immediately prior to being flowed over chip-bound HCII 1-75.
Figure 6 Senorgrams from surface plasmon resonance (SPR) experiments. Biotinylated HCII 1-75 was bound to streptavidin-coated sensor chips and varying concentrations of thrombin were flowed over the chip, generating sensorgrams (e.g. Panel A) of the response in response units (RU) versus the time in seconds. Panel B is a plot of experiment shown in Panel A, combined with two other independent experiments; each point therefore represents the mean mid-plateau response ± the SD of 3 independent experiments. In panels C-F the thrombin concentration was fixed at 250 nM and competitor peptides identified in each panel were combined with thrombin and flowed over the chip. The concentration of competitor peptides in each experiment is shown to the left of the sensorgram.

[6] = system: thrombin; settings: ref [21], cited from earlier work
Description: Although the differences between the encounter complex and the native structure support the allosteric model of activation, they provide no information on the position or role of the first 54 residues of HCII. […] We replicated this experiment and extended it to include all four of the exosite 1 ligand peptides employed in this study, as shown in Figure 4. We used the measurement previously employed to judge the potency of the peptides, the concentration required to double the thrombin clotting time. […] While there are no similar values in the literature available for HCII 1-75 for comparison to our results, ...

[7] = target: T2, thrombin; settings: ref [47]; read-out: KD, thrombin binding to dermatan sulfate; cited from earlier work
Description: (§3) The relative contributions to HCII function of a template mechanism, in which thrombin and HCII become co-localized due to their binding to the same glycosaminoglycan chain, or a conformational change mechanism, in which GAG binding to HCII releases the N-terminal extension of HCII for exosite 1 binding, remain somewhat controversial, as does the degree of cross-talk between thrombin’s exosites and active site.

[8] = target: HCII; settings: ref [47]; read-out: KD, HCII-dermatan sulfate interaction; cited from earlier work
Description: as §3

[9] = target: T1, α-thrombin; experiment: competition of binding of α-thrombin to HCII 1-75 immobilized on microtiter plate wells; parameters: purchased Enzyme Research, South Bend, IN; host or cells: HCII 1-75 probe made in house in E. coli TOP10; settings: 5 nM thrombin, 37°C 30 min, anti-thrombin antibody, OD 490 nm; mean of 3 determinations ± SD
Procedure: Purified HCII 1-75 was immobilized onto an Immulon 4 HBX 96 well microtiter plate (Thermo, Milford MA), using a 1 μM solution of HCII 1-75 in PBS at 0.1 mL per well overnight at 4°C. The HCII solution was then removed and the wells blocked with 5% BSA (w/vol) in PBS-T for one hour at ambient temperature. […] Wells were washed and reacted with horseradish peroxidase-conjugated sheep anti-human thrombin antibody (Affinity Biologicals, Ancaster, ON), diluted 1:10,000 in blocking buffer, for one hour at ambient temperature. Following washes with PBS-T, colour was developed using a freshly made solution of 5 mg o-phenylenediamine (Pierce) in 12 mL of 25 mM citric acid, 97 mM Na2HPO4 pH5.0 supplemented with 0.03% (v/vol) hydrogen peroxide for ten minutes prior to stopping the reaction with sulfuric acid. The optical density at 490 nm was then read on an EL808 Plate reader (Biotek Instruments, Winooski, VT). […] The same program was used to calculate IC50s in competitive binding experiments in which HCII-derived or hirudin-derived peptides were used to compete the binding of thrombin to immobilized HCII 1-75.

Substance: Biotinylated FPR chloromethylketone [bFPRck]
- amidolytic activity of modified thrombin against S2238 [1]: no detectable amidolytic activity against S2238

- Ki, inhibition of thrombin binding to HCII 1-75 (SPR) ([5]; 250 nM thrombin, chip-immobilized HCII 1-75, SPR 25°C, HBS pH 7.7, Ki from IC50 using KD 340 nM, mean of 3 determinations ± SD): No inhibition
Substance: HCII 1-53: Synthetic peptide containing the first 53 residues of human HCII and a nonapeptide N-terminal tag ({Met-Gly-Ser-H2N-H2N-H2N-H2N-H2N-H2N}-GSKGPLDQLEKGGETAQSADPQWEQLNNKNLSMPLLPADFHKENTVTNDWIPE; UniProt P05546 20-72, looked up, fragment)
- effect on rate of thrombin inhibition by plasma-derived HCII, dermatan sulfate [2]: no reduction in the apparent rate of inhibition
- effect on thrombin-mediated plasma clotting ([3]; plasma clotting assay): no effect; also recorded: no detectable ability to bind thrombin, to delay thrombin-mediated coagulation
- effect on rate of thrombin inhibition by plasma-derived HCII, heparin [4]: no effect; also recorded: no detectable ability to bind thrombin, to delay thrombin-mediated coagulation, or to compete for the N-terminal HCII 1-75 extension in native HCII
- thrombin binding ([5]; summary statement, discussion/conclusions): no detectable ability to bind thrombin; also recorded: did not bind to thrombin
- effect on thrombin binding to HCII 1-75 ([5]; up to 250 μM competitor, 250 nM thrombin, SPR): no effect on thrombin binding to HCII 1-75

Substance: HCII 54-75 peptide: synthetic peptide to HCII residues 54-75 of ref [21] (GEEDDDYLDLEKIFSEDDDYID; not fully specified (N-terminus); UniProt P05546 73-94, looked up, fragment)
- fold less potent than sulfo-Hir 54-65 as inhibitor of thrombin-mediated clotting ([6]; recalcified human plasma): approximately 30 fold
- inhibition of thrombin activities [6]: inhibition of thrombin-mediated fibrinogen cleavage and clot formation

Substance: dermatan sulfate
- Kd [7]: 2 to 6 µM
- Kd [8]: 236 to 290 µM

- IC50 [9]: 0.14 ± 0.04 µM
- Ki ([5]; 250 nM thrombin, chip-immobilized HCII 1-75, SPR 25°C, HBS pH 7.7, Ki from IC50 using KD 340 nM, mean of 3 determinations ± SD, read-out: Ki, inhibition of thrombin binding to HCII 1-75 (SPR)): 0.054 ± 0.09 µM
- fold more effective competitor of thrombin binding than HCII 1-75 ([5]; SPR competition): 48 fold
Substance: sulfo-Hir 54-65: Synthetic peptide containing the C-terminal 12 residues of hirudin, with Tyr63 sulfated [reference compound]
- concentration required to double the thrombin clotting time ([3]; diluted citrated human plasma, Thrombin 10 reagent, mean of 3 determinations ± SD): 0.150 ± 0.02 µM
